Laboratory results as given in patent publication US20130216529A1 (TALIGEN THERAPEUTICS, published 2013).

Experiments:
[1] = target: T1, recombinant human factor B (human, UniProt P00751 26-764, biotinylated (EZ-link) in the Octet assay only; sites not stated); test: BLI (ForteBio Octet), biotinylated human factor B on neutravidin sensors, Fab' at 1e-7 M; KD = Kdissoc/Kassoc
T1 construct: also called purified factor B protein
Method: (§1) Binding kinetics of the Fab′ fragments were analyzed using a FortéBio® Octet® biosensor (FortéBio, Inc., Menlo Park, Calif.). Recombinant human factor B was biotinylated with the EZ-link biotinylation system (Pierce Biotechnology, Rockford, Ill.) according to the manufacturer's instructions. The antigen was then coupled to neutravidin-coated sensors (FortéBio, Inc., Menlo Park, Calif.) according to the manufacturer's instructions. Fab′ binding was then monitored in real time using bio-layer interferometry analysis and software provided by the manufacturer. Antigen binding affinities were calculated for the tested Fab′ fragments based on the measured association (“Kassoc”) and dissociation (“Kdissoc”) constants. Preferably humaneered antibodies or antibody fragments with equilibrium dissociation constants the same or […] than that of the reference antibody (i.e., mAb 1379) or antibody fragment (i.e., TA10).
(§2) Fully humaneered Fab′ fragments were isolated by colony lift binding assays and confirmed as factor B binders by ELISA. Humaneered Fab′ fragments showing strong positive signals by ELISA were purified and further characterized in comparison to the reference Fab′ fragment TA10, which has murine V-region sequences from mAb 1379. Kinetics of Fab′ fragment binding to recombinant human factor B were analyzed with the FortéBio® Octet® system by bio-layer interferometry, providing real time label-free monitoring of protein-protein interactions. Measured association (Kassoc) and dissociation (Kdissoc) constants, and calculated equilibrium dissociation constants (KD=Kdissoc/Kassoc) (i.e., binding affinity), are shown in Table 1.

[2] = target: T1, recombinant human factor B; test: BLI (ForteBio Octet), biotinylated human factor B on neutravidin sensors, Fab' at 1e-7 M
Method: as §1, §2

[3] = target: T1, recombinant human factor B; test: dilution ELISA, factor B coated at 50 ng/well [upper panel]
[4] = target: T1, recombinant human factor B; test: dilution ELISA, factor B coated at 25 ng/well [upper panel]
[5] = target: T1, recombinant human factor B; test: dilution ELISA, factor B coated at 50 ng/well [lower panel]
Method: (§3) Next, the ability of the cloned VH and Vκ sequences to bind factor B was assayed. The cloned VH- and Vκ-regions were expressed in bacteria as Fab′ fragments, purified, and tested for binding to factor B in a dilution ELISA. FIG. 4 compares factor B binding of the cloned Fab′ TA003 to that of a Fab′ derived from mAb1379. As expected, both the cloned Fab′ and murine Fab produced binding curves that were dependent on both antibody and antigen concentration.

[6] = target: T1, recombinant human factor B; test: dilution ELISA, factor B coated at 100 ng/well [lower panel]
Method: as §3

[7] = target: T1, recombinant human factor B; test: dilution ELISA, factor B coated at 25 ng/well [lower panel]
Method: as §3

T1 sequence (P00751 26-764): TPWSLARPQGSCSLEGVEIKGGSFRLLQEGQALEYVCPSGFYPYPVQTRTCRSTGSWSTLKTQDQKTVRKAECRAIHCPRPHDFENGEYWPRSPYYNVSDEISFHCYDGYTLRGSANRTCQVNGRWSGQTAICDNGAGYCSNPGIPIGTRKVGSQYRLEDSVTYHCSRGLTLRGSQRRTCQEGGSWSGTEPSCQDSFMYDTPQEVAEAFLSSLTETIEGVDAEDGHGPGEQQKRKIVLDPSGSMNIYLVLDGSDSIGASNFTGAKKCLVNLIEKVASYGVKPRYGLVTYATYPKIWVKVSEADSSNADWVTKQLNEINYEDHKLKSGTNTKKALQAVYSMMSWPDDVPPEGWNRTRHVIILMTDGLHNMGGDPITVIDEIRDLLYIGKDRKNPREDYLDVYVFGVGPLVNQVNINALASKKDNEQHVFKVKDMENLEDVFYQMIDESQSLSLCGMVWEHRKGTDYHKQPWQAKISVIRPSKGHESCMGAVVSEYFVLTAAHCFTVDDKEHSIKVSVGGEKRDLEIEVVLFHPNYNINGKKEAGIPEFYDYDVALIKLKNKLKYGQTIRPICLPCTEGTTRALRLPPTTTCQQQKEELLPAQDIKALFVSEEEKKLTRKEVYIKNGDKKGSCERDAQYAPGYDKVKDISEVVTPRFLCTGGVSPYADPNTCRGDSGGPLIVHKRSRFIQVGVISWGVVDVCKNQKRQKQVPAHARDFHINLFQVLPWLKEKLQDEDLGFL

Binder | Kd [1] | koff [2] | also measured
TA103-2 Fab' (Fab, V domains shown, Humaneered Fab' expressed in E. coli) VH: QVQLVQSGAEVKKPGASVKVSCKASGYSFTDYYMTWVRQAPGQGLEWMGWINPNSGGTKYAQKFQGRVTMTRDTSISTAYMELSRLRSDDTAVYYCARGYYANSAWFAYWGQGTLVTVSS VL: DIVMTQSPDSLAVSLGERATINCKSSQSLLNSRTSKNYLAWYQQKPGQPPKLLIYWASTRESGVPDRFSGSGSGTDFTLTISSLQAEDVAVYYCKQVYNLPWTFGQGTKLEIK | 3.73 nM | 0.0028 s⁻¹ | 
TA101-1 Fab' (Fab, V domains shown, Humaneered Fab' expressed in E. coli) VH: QVQLVQSGAEVKKPGASVKVSCKASGYSFTDYYMTWVRQAPGQGLEWMGWINPNSGGTKYAQKFQGRVTMTRDTSISTAYMELSRLRSDDTAVYYCARGYYANSAWFAYWGQGTLVTVSS VL: DIVMTQSPDSLAVSLGERATINCKSSQSLLNSSTSKNYLAWYQQKPGQPPKLLIYWASTRESGVPDRFSGSGSGTDFTLTISSLQAEDVAVYYCKQVYNLPWTFGQGTKLEIK | 4.53 nM | 0.00233 s⁻¹ | 
TA102-4 Fab' (Fab, V domains shown, Humaneered Fab' expressed in E. coli) VH: QVQLVQSGAEVKKPGASVKVSCKASGYSFTDYYMTWVRQAPGQGLEWMGWINPNSGGTKYAQKFQGRVTMTRDTSISTAYMELSRLRSDDTAVYYCARGYYANSAWFAYWGQGTLVTVSS VL: DIVMTQSPDSLAVSLGERATINCKSSQSVLNSRNKKNYLAWYQQKPGQPPKLLIYWASTRESGVPDRFSGSGSGTDFTLTISSLQAEDVAVYYCKQVYNLPWTFGQGTKLEIK | 5.4 nM | 0.00437 s⁻¹ | kon [2]: 810000 M⁻¹ s⁻¹
cloned Fab' TA003 (Fab, V domains shown, No sentence ties the name TA003 to these numbers directly; also called the cloned Fab'; purified Fab' protein (cloned V-regions from the hybridoma producing mAb 1379)) VH: EVQLQQSGPELVKPGASVKIPCKASGYTFTDYNMDWVKQSHGKSLEWIGDINPNNGGTIYNQKFKGKATLTVDKSSSTAYMELRSLTSEDTAVYYCARGYYSNSAWFAYWGQGTLVTVSA VL: DIVMSQSPSSLAVSAGEKVTMSCKSSQSLLNSRTRKNYLAWYQQKPGQSPKLLIYWASTRESGVPDRFTGSGSGTDFTLTISSVQAEDLAVYYCKQSYNLPWTFGGGTKLEIKR |  |  | EC50 (read off the curve) [3]: ~20 nM; EC50 (read off the curve) [4]: ~40 nM
TA10 reference Fab' (Fab, V domains shown) VH: EVQLQQSGPELVKPGASVKIPCKASGYTFTDYNMDWVKQSHGKSLEWIGDINPNNGGTIYNQKFKGKATLTVDKSSSTAYMELRSLTSEDTAVYYCARGYYSNSAWFAYWGQGTLVTVSS VL: DIVMSQSPSSLAVSAGEKVTMSCKSSQSLLNSRTRKNYLAWYQQKPGQSPKLLIYWASTRESGVPDRFTGSGSGTDFTLTISSVQAEDLAVYYCKQSYNLPWTFGQGTKLEIK | 6.55 nM | 0.00296 s⁻¹ | 
Fab' derived from mAb 1379 by papain digestion (Fab, V domains shown, Papain fragment of the murine IgG1 kappa hybridoma antibody mAb 1379 (ATCC PTA-6230); also called murine Fab) VH: EVQLQQSGPELVKPGASVKIPCKASGYTFTDYNMDWVKQSHGKSLEWIGDINPNNGGTIYNQKFKGKATLTVDKSSSTAYMELRSLTSEDTAVYYCARGYYSNSAWFAYWGQGTLVTVSA VL: DIVMSQSPSSLAVSAGEKVTMSCKSSQSLLNSRTRKNYLAWYQQKPGQSPKLLIYWASTRESGVPDRFTGSGSGTDFTLTISSVQAEDLAVYYCKQSYNLPWTFGGGTKLEIKR |  |  | EC50 (read off the curve) [5]: ~10 nM; EC50 (read off the curve) [6]: ~8 nM; EC50 (read off the curve) [7]: ~30 nM
